Test results: patent US20250066503A1, “CELL INJURY INDUCING THERAPEUTIC DRUG FOR USE IN CANCER THERAPY” (CHUGAI SEIYAKU KABUSHIKI KAISHA, priority 2016, published 2025)

target: T1, soluble human CD3 epsilon chain (human, UniProt P07766 23-126); test: SPR
T1 construct: also called CD3ε
T1 sequence (P07766 23-126 limits assumed): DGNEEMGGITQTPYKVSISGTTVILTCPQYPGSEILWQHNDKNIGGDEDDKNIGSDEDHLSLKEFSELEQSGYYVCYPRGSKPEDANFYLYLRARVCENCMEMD

Kd | Binder
39.5 nM | TR01H040-E22Hh/none-Hi-Kn010G3/TR01L015-k0 (antibody, V domains shown, one-arm) VH: QVQLVESGGGLVQPGRSLRLSCAASGFTFSNAWMHWVRQAPGKGLEWVAQIKDKSQNYATYYAESVKGRFTISRADSKNSIYLQMNSLKTEDTAVYYCRYVHYSASYGVDAWGQGTTVTVSS VL: DIVMTQSPLSLPVTPGEPASISCRSSQSPVHSNRNTYLHWYLQKPGQSPQLLIYKVSNRFSGVPDRFSGSGSGTDFTLKISRVEAEDVGVYYCGQGTQVPYTFGQGTKLEIK
139 nM | TR01H067-E22Hh/none-Hi-Kn010G3/L0248-k0 (antibody, V domains shown, one-arm) VH: QVQLVESGGGLVQPGRSLRLSCAASGFTFSNAWMHWVRQAPGKGLEWVAQIKDKSQNYATYYAESVKGRFTISRDDSKNSLYLQMNSLKTEDTAVYYCRYVHYAASYGVDAWGQGTTVTVSS VL: DIVMTQSPLSLPVTPGEPASISCRPSQSPVHSNRNTYIQWYQQKPGQAPRLLIYKVSNRFSGVPDRFSGSGSGTDFTLKISRVEAEDVGVYYCYQGTQVPYTFGQGTKLEIK
9.51 nM | TR01H071-E22Hh/none-Hi-Kn010G3/L0215-k0 (antibody, V domains shown, one-arm) VH: QVQLVESGGGLVQPGRSLRLSCAASGFTFSNAWMHWVRQAPGKGLEWVAQIKDKSNNYATYYAESVKGRFTISRADSKNSIYLQMNSLKTEDTAVYYCRYVHYAASYGVDIWGQGTTVTVSS VL: DIVMTQSPLSLPVTPGEPASISCRSSQPPVHSNRNTYIHWYQQKPGQAPRLLIYKVSNRFSGVPDRFSGSGSGTDFTLKISRVEAEDVGVYYCGQGTQVPYTFGQGTKLEIK
60.3 nM | TR01H067-E22Hh/none-Hi-Kn010G3/L0200-k0 (antibody, V domains shown, one-arm) VH: QVQLVESGGGLVQPGRSLRLSCAASGFTFSNAWMHWVRQAPGKGLEWVAQIKDKSQNYATYYAESVKGRFTISRDDSKNSLYLQMNSLKTEDTAVYYCRYVHYAASYGVDAWGQGTTVTVSS VL: DIVMTQSPLSLPVTPGEPASISCRPSQSPVHSNRNTYLHWYQQKPGQAPRLLIYKVSNRFSGVPDRFSGSGSGTDFTLKISRVEAEDVGVYYCGQGTQVPYTFGQGTKLEIK
47 nM | TR01H082-E22Hh/none-Hi-Kn010G3/L0258-k0 (antibody, V domains shown, one-arm) VH: QVQLVESGGGLVQPGRSLRLSCAASGFTFSNAWMHWVRQAPGKGLEWVAQIKDKSQNYATYYAESVKGRFTISRDDSKNSLYLQMNSLKTEDTAVYYCRYVHYAAGYGVDAWGQGTTVTVSS VL: DIVMTQSPLSLPVTPGEPASISCRSSQPPVHSNRNTYLHWYQQKPGQAPRLLIYKVSNRFSGVPDRFSGSGSGTDFTLKISRVEAEDVGVYYCTQGTQVPYTFGQGTKLEIK
25.1 nM | TR01H071-E22Hh/none-Hi-Kn010G3/L0226-k0 (antibody, V domains shown, one-arm) VH: QVQLVESGGGLVQPGRSLRLSCAASGFTFSNAWMHWVRQAPGKGLEWVAQIKDKSNNYATYYAESVKGRFTISRADSKNSIYLQMNSLKTEDTAVYYCRYVHYAASYGVDIWGQGTTVTVSS VL: DIVMTQSPLSLPVTPGEPASISCRSSQSPVHSNRNTYIHWYQQKPGQAPRLLIYKVSNRFSGVPDRFSGSGSGTDFTLKISRVEAEDVGVYYCIQGTQVPYTFGQGTKLEIK
132 nM | TR01H067-E22Hh/none-Hi-Kn010G3/L0226-k0 (antibody, V domains shown, one-arm) VH: QVQLVESGGGLVQPGRSLRLSCAASGFTFSNAWMHWVRQAPGKGLEWVAQIKDKSQNYATYYAESVKGRFTISRDDSKNSLYLQMNSLKTEDTAVYYCRYVHYAASYGVDAWGQGTTVTVSS VL: DIVMTQSPLSLPVTPGEPASISCRSSQSPVHSNRNTYIHWYQQKPGQAPRLLIYKVSNRFSGVPDRFSGSGSGTDFTLKISRVEAEDVGVYYCIQGTQVPYTFGQGTKLEIK
5.76 nM | TR01H081-E22Hh/none-Hi-Kn010G3/L0262-k0 (antibody, V domains shown, one-arm) VH: QVQLVESGGGLVQPGRSLRLSCAASGFTFSNAWMHWVRQAPGKGLEWVAQIKDKSQNYATYYAESVKGRFTISRADSKNSIYLQMNSLKTEDTAVYYCRYVHYAAGYGVDIWGQGTTVTVSS VL: DIVMTQSPLSLPVTPGEPASISCRSSQPPVHSNRNTYLHWYQQKPGQAPRLLIYKVSNRFSGVPDRFSGSGSGTDFTLKISRVEAEDVGVYYCAQGTQVPYTFGQGTKLEIK
52.6 nM | TR01H067-E22Hh/none-Hi-Kn010G3/TR01L018-k0 (antibody, V domains shown, one-arm) VH: QVQLVESGGGLVQPGRSLRLSCAASGFTFSNAWMHWVRQAPGKGLEWVAQIKDKSQNYATYYAESVKGRFTISRDDSKNSLYLQMNSLKTEDTAVYYCRYVHYAASYGVDAWGQGTTVTVSS VL: DIVMTQSPLSLPVTPGEPASISCQASESPVHSNRNTYLHWYLQKPGQSPQLLIYKVSNRFSGVPDRFSGSGSGTDFTLKISRVEAEDVGVYYCGQGTQVPYTFGQGTKLEIK
47.1 nM | TR01H061-E22Hh/none-Hi-Kn010G3/L0226-k0 (antibody, V domains shown, one-arm) VH: QVQLVESGGGLVQPGRSLRLSCAASGFTFSNAWMHWVRQAPGKGLEWVAQIKDKSQNYATYYAESVKGRFTISRADSKNSIYLQMNSLKTEDTAVYYCRYVHYAASYGVDIWGQGTTVTVSS VL: DIVMTQSPLSLPVTPGEPASISCRSSQSPVHSNRNTYIHWYQQKPGQAPRLLIYKVSNRFSGVPDRFSGSGSGTDFTLKISRVEAEDVGVYYCIQGTQVPYTFGQGTKLEIK
12.7 nM | TR01H061-E22Hh/none-Hi-Kn010G3/L0200-k0 (antibody, V domains shown, one-arm) VH: QVQLVESGGGLVQPGRSLRLSCAASGFTFSNAWMHWVRQAPGKGLEWVAQIKDKSQNYATYYAESVKGRFTISRADSKNSIYLQMNSLKTEDTAVYYCRYVHYAASYGVDIWGQGTTVTVSS VL: DIVMTQSPLSLPVTPGEPASISCRPSQSPVHSNRNTYLHWYQQKPGQAPRLLIYKVSNRFSGVPDRFSGSGSGTDFTLKISRVEAEDVGVYYCGQGTQVPYTFGQGTKLEIK

More lines, now with the values behind:

Binder | Kd
TR01H082-E22Hh/none-Hi-Kn010G3/L0263-k0 (antibody, V domains shown, one-arm) VH: QVQLVESGGGLVQPGRSLRLSCAASGFTFSNAWMHWVRQAPGKGLEWVAQIKDKSQNYATYYAESVKGRFTISRDDSKNSLYLQMNSLKTEDTAVYYCRYVHYAAGYGVDAWGQGTTVTVSS VL: DIVMTQSPLSLPVTPGEPASISCRSSQSPVHSNRNTYIHWYQQKPGQAPRLLIYKVSNRFSGVPDRFSGSGSGTDFTLKISRVEAEDVGVYYCAQGTQVPYTFGQGTKLEIK | 30.9 nM
TR01H082-E22Hh/none-Hi-Kn010G3/L0259-k0 (antibody, V domains shown, one-arm) VH: QVQLVESGGGLVQPGRSLRLSCAASGFTFSNAWMHWVRQAPGKGLEWVAQIKDKSQNYATYYAESVKGRFTISRDDSKNSLYLQMNSLKTEDTAVYYCRYVHYAAGYGVDAWGQGTTVTVSS VL: DIVMTQSPLSLPVTPGEPASISCRSSQSPVHSNRNTYIHWYQQKPGQAPRLLIYKVSNRFSGVPDRFSGSGSGTDFTLKISRVEAEDVGVYYCTQGTQVPYTFGQGTKLEIK | 50.7 nM
TR01H067-E22Hh/none-Hi-Kn010G3/L0215-k0 (antibody, V domains shown, one-arm) VH: QVQLVESGGGLVQPGRSLRLSCAASGFTFSNAWMHWVRQAPGKGLEWVAQIKDKSQNYATYYAESVKGRFTISRDDSKNSLYLQMNSLKTEDTAVYYCRYVHYAASYGVDAWGQGTTVTVSS VL: DIVMTQSPLSLPVTPGEPASISCRSSQPPVHSNRNTYIHWYQQKPGQAPRLLIYKVSNRFSGVPDRFSGSGSGTDFTLKISRVEAEDVGVYYCGQGTQVPYTFGQGTKLEIK | 74.1 nM
TR01H061-E22Hh/none-Hi-Kn010G3/L0215-k0 (antibody, V domains shown, one-arm) VH: QVQLVESGGGLVQPGRSLRLSCAASGFTFSNAWMHWVRQAPGKGLEWVAQIKDKSQNYATYYAESVKGRFTISRADSKNSIYLQMNSLKTEDTAVYYCRYVHYAASYGVDIWGQGTTVTVSS VL: DIVMTQSPLSLPVTPGEPASISCRSSQPPVHSNRNTYIHWYQQKPGQAPRLLIYKVSNRFSGVPDRFSGSGSGTDFTLKISRVEAEDVGVYYCGQGTQVPYTFGQGTKLEIK | 15.4 nM
TR01H082-E22Hh/none-Hi-Kn010G3/L0262-k0 (antibody, V domains shown, one-arm) VH: QVQLVESGGGLVQPGRSLRLSCAASGFTFSNAWMHWVRQAPGKGLEWVAQIKDKSQNYATYYAESVKGRFTISRDDSKNSLYLQMNSLKTEDTAVYYCRYVHYAAGYGVDAWGQGTTVTVSS VL: DIVMTQSPLSLPVTPGEPASISCRSSQPPVHSNRNTYLHWYQQKPGQAPRLLIYKVSNRFSGVPDRFSGSGSGTDFTLKISRVEAEDVGVYYCAQGTQVPYTFGQGTKLEIK | 39.8 nM
TR01H067-E22Hh/none-Hi-Kn010G3/TR01L016-k0 (antibody, V domains shown, one-arm) VH: QVQLVESGGGLVQPGRSLRLSCAASGFTFSNAWMHWVRQAPGKGLEWVAQIKDKSQNYATYYAESVKGRFTISRDDSKNSLYLQMNSLKTEDTAVYYCRYVHYAASYGVDAWGQGTTVTVSS VL: DIVMTQSPLSLPVTPGEPASISCRSSQSPVHSNRNTYLHWYLQKPGQSPQLLIYKVSNRFSGVPDRFSGSGSGTDFTLKISRVEAEDVGVYYCYQGTQVPYTFGQGTKLEIK | 10.9 nM
TR01H071-E22Hh/none-Hi-Kn010G3/L0200-k0 (antibody, V domains shown, one-arm) VH: QVQLVESGGGLVQPGRSLRLSCAASGFTFSNAWMHWVRQAPGKGLEWVAQIKDKSNNYATYYAESVKGRFTISRADSKNSIYLQMNSLKTEDTAVYYCRYVHYAASYGVDIWGQGTTVTVSS VL: DIVMTQSPLSLPVTPGEPASISCRPSQSPVHSNRNTYLHWYQQKPGQAPRLLIYKVSNRFSGVPDRFSGSGSGTDFTLKISRVEAEDVGVYYCGQGTQVPYTFGQGTKLEIK | 6.13 nM
TR01H067-E22Hh/none-Hi-Kn010G3/L0262-k0 (antibody, V domains shown, one-arm) VH: QVQLVESGGGLVQPGRSLRLSCAASGFTFSNAWMHWVRQAPGKGLEWVAQIKDKSQNYATYYAESVKGRFTISRDDSKNSLYLQMNSLKTEDTAVYYCRYVHYAASYGVDAWGQGTTVTVSS VL: DIVMTQSPLSLPVTPGEPASISCRSSQPPVHSNRNTYLHWYQQKPGQAPRLLIYKVSNRFSGVPDRFSGSGSGTDFTLKISRVEAEDVGVYYCAQGTQVPYTFGQGTKLEIK | 49.2 nM
TR01H040-E22Hh/none-Hi-Kn010G3/TR01L016-k0 (antibody, V domains shown, one-arm) VH: QVQLVESGGGLVQPGRSLRLSCAASGFTFSNAWMHWVRQAPGKGLEWVAQIKDKSQNYATYYAESVKGRFTISRADSKNSIYLQMNSLKTEDTAVYYCRYVHYSASYGVDAWGQGTTVTVSS VL: DIVMTQSPLSLPVTPGEPASISCRSSQSPVHSNRNTYLHWYLQKPGQSPQLLIYKVSNRFSGVPDRFSGSGSGTDFTLKISRVEAEDVGVYYCYQGTQVPYTFGQGTKLEIK | 2.52 nM
TR01H082-E22Hh/none-Hi-Kn010G3/L0260-k0 (antibody, V domains shown, one-arm) VH: QVQLVESGGGLVQPGRSLRLSCAASGFTFSNAWMHWVRQAPGKGLEWVAQIKDKSQNYATYYAESVKGRFTISRDDSKNSLYLQMNSLKTEDTAVYYCRYVHYAAGYGVDAWGQGTTVTVSS VL: DIVMTQSPLSLPVTPGEPASISCRPSQSPVHSNRNTYLHWYQQKPGQAPRLLIYKVSNRFSGVPDRFSGSGSGTDFTLKISRVEAEDVGVYYCTQGTQVPYTFGQGTKLEIK | 45.3 nM
TR01H067-E22Hh/none-Hi-Kn010G3/TR01L015-k0 (antibody, V domains shown, one-arm) VH: QVQLVESGGGLVQPGRSLRLSCAASGFTFSNAWMHWVRQAPGKGLEWVAQIKDKSQNYATYYAESVKGRFTISRDDSKNSLYLQMNSLKTEDTAVYYCRYVHYAASYGVDAWGQGTTVTVSS VL: DIVMTQSPLSLPVTPGEPASISCRSSQSPVHSNRNTYLHWYLQKPGQSPQLLIYKVSNRFSGVPDRFSGSGSGTDFTLKISRVEAEDVGVYYCGQGTQVPYTFGQGTKLEIK | 86.4 nM
